± gives the standard deviation of the averaged measurements.
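Also: PSI is a weighted mean of sequencing reads over stability bins, variants kept only with over 10 reads, mCherry proximal and sfGFP distal, peptide attached via GGGS linker.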

For the data set, the system named is Saccharomyces cerevisiae. Nature of the data set: protein stability index of tFT-peptide fusion (C-terminal peptide) (PSI (0-1 scale)); higher = more stable (slower turnover). As to conditions: genetic background: wild type; temperature: 30 C.
Turning to LDPPCPTARLPH, the protein stability index was found to be 0.61 ± 0.052.
Sequence LDSMSRPGATVS yielded a protein stability index of 0.668 ± 0.051.
Then LDVAFLMSRFSS, with 0.731 ± 0.024; and LDVGYVLGLERS, with 0.681 ± 0.033; and LEGGWRVGGGRL, with 0.683 ± 0.015.
To LEGYFMLPRSAW belongs 0.736 ± 0.065; to LENIHVLETIFT, 0.6022 ± 0.0054.
To LERCKSLDSIVL belongs 0.701 ± 0.071; to LESLWEAIRTLF, 0.5136 ± 0.005.
Regarding LFAKVVSGYDLG, the protein stability index was determined as 0.711 ± 0.024.
Then LFALRLLSREGI, with 0.604 ± 0.046.
To LFDGPFPHLFPT belongs 0.718 ± 0.091; to LFELVRTCDRCV, 0.7 ± 0.03; to LFFLLPSSPIGF, 0.705 ± 0.011.
To LFFLPSSSLSPL belongs 0.731 ± 0.022; to LFFRFGRWFLGF, 0.671 ± 0.027; to LFGHMENNLLKS, 0.722 ± 0.046.
As for LFGQTVLLSAGT, the protein stability index turned out to be 0.713 ± 0.018.
Then LFHFLSPVALPS, with 0.6649 ± 0.0041; and LFITTSLFRPFA, with 0.53 ± 0.015.
To LFLPDPHSLTFH belongs 0.744 ± 0.044.
Then LFLSLFLFPSLS, with 0.57 ± 0.03; and LFLYPFCVGGFL, with 0.714 ± 0.016; and LFPLHLPSPPPG, with 0.7207 ± 0.0018.
Take LFPLISPLQSER: the protein stability index amounted to 0.737 ± 0.026.
Then LFPVTSLFPPLP, with 0.706 ± 0.012; and LFSSSLISPLFA, with 0.582 ± 0.025; and LFTLFPPFFYSR, with 0.681 ± 0.0079.
To LFVGCRDPLCGV belongs 0.723 ± 0.00029; to LFVMGSACPLRI, 0.681 ± 0.029; to LFVPAASRLAFS, 0.686 ± 0.011.
For LFVSGVPRSWDR, the protein stability index worked out at 0.707 ± 0.19.
Then LGAAMRSAVEAA, with 0.64 ± 0.013; and LGCGVSLWVVPG, with 0.712 ± 0.034.
In the case of LGCSVGESVGAG, the protein stability index is 0.68 ± 0.03.
Take LGFNRRSKTRMI: the protein stability index was determined as 0.704 ± 0.014.
To LGGARWSGLPHV belongs 0.707 ± 0.085; to LGGGAGAGYWVG, 0.741 ± 0.032.
For LGGGAGLRCGGF, the protein stability index worked out at 0.673 ± 0.02.
Then LGGGARGSGGGA, with 0.727 ± 0.028; and LGGGGKNGSERV, with 0.696 ± 0.017; and LGGRTWTLVRSG, with 0.64 ± 0.033.
To LGGVLSRQPYSE belongs 0.643 ± 0.014; to LGGVRRRDWQEG, 0.677 ± 0.016.
Then LGIVSLDWLWLR, with 0.513 ± 0.043.
LGKSRVHLWTGT had a protein stability index of 0.706 ± 0.04.
Then LGLFECAFLDRS, with 0.736 ± 0.013.
To LGLPISREASVG belongs 0.637 ± 0.011; to LGLWSSVFGSSL, 0.743 ± 0.018.
Then LGPAPFSPPPPL, with 0.738 ± 0.041; and LGPLPHDGFSMF, with 0.761 ± 0.011; and LGPPPPPASVCR, with 0.647 ± 0.012.
LGPRRPGQSGSR came in with a protein stability index of 0.712 ± 0.011.
To LGPSTCPCEVQS belongs 0.677 ± 0.015; to LGRGRGGCLGEL, 0.5915 ± 0.0034.
Then LGRNLGKDPVEV, with 0.593 ± 0.11; and LGRNTVIGLCLE, with 0.642 ± 0.1; and LGRRVGWEVSGE, with 0.687 ± 0.024.
Then LGSSTGSVESLS, with 0.737 ± 0.048.
With LGTETASSGFSG, the protein stability index was 0.691 ± 0.029.
To LGTLLWWGAGRG belongs 0.708 ± 0.02; to LGVAFCAPRLFY, 0.743 ± 0.023.
Then LGVDFCRGVVVE, with 0.654 ± 0.035; and LGVGGRWVVPGA, with 0.722 ± 0.032.

Values taken from the supplement of paper PMC10724198.
